Measured values reported in PMC5363870, “A functional variant in NEPH3 gene confers high risk of renal failure in primary hematuric glomerulopathies. Evidence for predisposition to microalbuminuria in the general population” (PLoS ONE, 2017).
Substitutions are numbered along the chain they refer to. Names and notes keep the numbering of the source.

B1: Neph3 (filtrin) 353M variant (natural protein, human, UniProt Q6UWL6 21-708, looked up)
chain: GPSPHFLQQPEDLVVLLGEEARLPCALGAYWGLVQWTKSGLALGGQRDLPGWSRYWISGNAANGQHDLHIRPVELEDEASYECQATQAGLRSRPAQLHVLVPPEAPQVLGGPSVSLVAGVPANLTCRSRGDARPTPELLWFRDGVLLDGATFHQTLLKEGTPGSVESTLTLTPFSHDDGATFVCRARSQALPTGRDTAITLSLQYPPEVTLSASPHTVQEGEKVIFLCQATAQPPVTGYRWAKGGSPVLGARGPRLEVVADASFLTEPVSCEVSNAVGSANRSTALDVLFGPILQAKPEPVSVDVGEDASFSCAWRGNPLPRVTWTRRGGAQMLGSGATLRLPSVGPEDAGDYVCRAEAGLSGLRGGAAEARLTVNAPPVVTALHSAPAFLRGPARLQCLVFASPAPDAVVWSWDEGFLEAGSQGRFLVETFPAPESRGGLGPGLISVLHISGTQESDFSRSFNCSARNRLGEGGAQASLGRRDLLPTVRIVAGVAAATTTLLMVITGVALCCWRHSKASASFSEQKNLMRIPGSSDGSSSRGPEEEETGSREDRGPIVHTDHSDLVLEEEGTLETKDPTNGYYKVRGVSVSLSLGEAPGGGLFLPPPSPLGPPGTPTFYDFNPHLGMVPPCRLYRARAGYLTTPHPRAFTSYIKPTSFGPPDLAPGTPPFPYAAFPTPSHPRLQTHV
notes: Neph3 (filtrin), human NEPH3 cDNA with the natural variant V353M (GTG to ATG by site-directed mutagenesis); Each copy carries ONE tag: FLAG on the bait copy, HA on the prey copy of the homodimerisation co-IP; Two FLAG constructs are described (Origene pCMV6 with FLAG-tag; modified pcDNA6 with CD5 signal peptide fused to the FLAG-tag); also called NEPH3-V353M; NEPH3-p.V353M; source: HEK 293T, …
B2: Neph3 (filtrin) 353V (natural protein, human, UniProt Q6UWL6 21-708, looked up)
chain: B1 chain with M333V
notes: Neph3 (filtrin), human NEPH3 cDNA, wild-type allele with valine at position 353; Each copy carries ONE tag: FLAG on the bait copy, HA on the prey copy of the homodimerisation co-IP; Two FLAG constructs are described (Origene pCMV6 with FLAG-tag; modified pcDNA6 coding for the CD5 signal peptide fused to the FLAG-tag); In the pcDNA6 constructs a CD5 signal peptide precedes the tag; also called …
B3: Nephrin (Nphs1) (natural protein, human, UniProt O60500 23-1241, looked up)
chain: QLAIPASVPRGFWALPENLTVVEGASVELRCGVSTPGSAVQWAKDGLLLGPDPRIPGFPRYRLEGDPARGEFHLHIEACDLSDDAEYECQVGRSEMGPELVSPRVILSILVPPKLLLLTPEAGTMVTWVAGQEYVVNCVSGDAKPAPDITILLSGQTISDISANVNEGSQQKLFTVEATARVTPRSSDNRQLLVCEASSPALEAPIKASFTVNVLFPPGPPVIEWPGLDEGHVRAGQSLELPCVARGGNPLATLQWLKNGQPVSTAWGTEHTQAVARSVLVMTVRPEDHGAQLSCEAHNSVSAGTQEHGITLQVTFPPSAIIILGSASQTENKNVTLSCVSKSSRPRVLLRWWLGWRQLLPMEETVMDGLHGGHISMSNLTFLARREDNGLTLTCEAFSEAFTKETFKKSLILNVKYPAQKLWIEGPPEGQKLRAGTRVRLVCLAIGGNPEPSLMWYKDSRTVTESRLPQESRRVHLGSVEKSGSTFSRELVLVTGPSDNQAKFTCKAGQLSASTQLAVQFPPTNVTILANASALRPGDALNLTCVSVSSNPPVNLSWDKEGERLEGVAAPPRRAPFKGSAAARSVLLQVSSRDHGQRVTCRAHSAELRETVSSFYRLNVLYRPEFLGEQVLVVTAVEQGEALLPVSVSANPAPEAFNWTFRGYRLSPAGGPRHRILSSGALHLWNVTRADDGLYQLHCQNSEGTAEARLRLDVHYAPTIRALQDPTEVNVGGSVDIVCTVDANPILPGMFNWERLGEDEEDQSLDDMEKISRGPTGRLRIHHAKLAQAGAYQCIVDNGVAPPARRLLRLVVRFAPQVEHPTPLTKVAAAGDSTSSATLHCRARGVPNIVFTWTKNGVPLDLQDPRYTEHTYHQGGVHSSLLTIANVSAAQDYALFTCTATNALGSDQTNIQLVSISRPDPPSGLKVVSLTPHSVGLEWKPGFDGGLPQRFCIRYEALGTPGFHYVDVVPPQATTFTLTGLQPSTRYRVWLLASNALGDSGLADKGTQLPITTPGLHQPSGEPEDQLPTEPPSGPSGLPLLPVLFALGGLLLLSNASCVGGVLWQRRLRRLAEGISEKTEAGSEEDRVRNEYEESQWTGERDTQSSTVSTTEAEPYYRSLRDFSPQLPPTQEEVSYSRGFTGEDEDMAFPGHLYDEVERTYPPSGAWGPLYDEVQMGPWDLHWPEDTYQDPRGIYDQVAGDLDTLEPDSLPFELRGHLV
notes: Nephrin, human NPHS1 cDNA cloned into a modified pcDNA6 vector behind the CD5 signal peptide and the V5 tag (sV5-tag); A CD5 signal peptide precedes the V5 tag in the construct; also called sV5-Nphs1; sV5-Nephrin; source: HEK 293T, transfected (calcium phosphate), in lysate; not shown: V5, N-terminal, kept

Experiments:
Assay in all cases: co-IP; HEK 293T cells co-transfected, lysed in IP-buffer (1% Triton X-100, 20 mM Tris pH 7.5, 25 mM NaCl); FLAG-Neph3 precipitated with anti-FLAG, blot with anti-HA (HA-Neph3) or anti-V5 (sV5-nephrin); densitometry (ImageJ) normalised to input, wild type set at 1.0, n = 3
[1] = molecular target: the molecule itself
Neph3 (filtrin) 353V = molecular target: B2; conditions: partners not purified
[2] = molecular target: B1; conditions: partners not purified

Row | Binder | mean normalized densitometry value (co-IP) [1] | mean normalized densitometry value (co-IP) (Neph3 (filtrin) 353V) | mean densitometry value (co-IP) [2]
1 | B1 | 23.8 relative to wild type (1.0) | 4.33 relative to wild type (1.0) | –
2 | B2 | 1 relative to wild type (1.0) | – | –
3 | B3 | – | 1 relative to wild type (1.0) | 1.18 relative to wild type (1.0)
